In patent publication US20170296650A1 (Novartis, published 2017):

What was measured:
[1] = target: T1, hCMV gM + gN (HEK293T co-transfectant) (hCMV, UniProt P16733 1-372; P16795 22-138); assay: cell-based or functional assay
T1 sequence 1: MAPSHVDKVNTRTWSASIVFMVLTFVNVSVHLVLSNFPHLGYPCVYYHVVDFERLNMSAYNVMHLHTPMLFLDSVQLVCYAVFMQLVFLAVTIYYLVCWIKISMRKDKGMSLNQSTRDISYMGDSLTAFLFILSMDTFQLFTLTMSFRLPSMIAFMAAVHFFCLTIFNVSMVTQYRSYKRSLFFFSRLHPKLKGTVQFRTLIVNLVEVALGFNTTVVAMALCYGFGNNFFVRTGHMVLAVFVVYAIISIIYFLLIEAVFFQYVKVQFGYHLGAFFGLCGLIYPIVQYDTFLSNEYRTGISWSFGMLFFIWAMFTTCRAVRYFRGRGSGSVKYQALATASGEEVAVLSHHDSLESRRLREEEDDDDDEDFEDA
T1 sequence 2: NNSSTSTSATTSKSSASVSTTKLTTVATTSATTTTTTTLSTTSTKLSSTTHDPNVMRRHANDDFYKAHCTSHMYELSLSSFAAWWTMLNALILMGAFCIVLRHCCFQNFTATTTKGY

[2] = target: T1, hCMV gM + gN (HEK293T co-transfectant); assay: cell-based or functional assay; remark: listed apart in the source
[3] = target: T2, hCMV glycoprotein B (gB; HEK293T transfectant) (hCMV, UniProt P06473 32-906); assay: cell-based or functional assay
[4] = target: T2, hCMV glycoprotein B (gB; HEK293T …); assay: cell-based or functional assay; remark: listed apart in the source
[5] = target: T2, hCMV glycoprotein B (gB; HEK293T …); assay: cell-based or functional assay; remark: listed apart in the source
[6] = target: T3, soluble gB ectodomain expressed in a mammalian cell line (hCMV, UniProt P06473 32-750); assay: ELISA, soluble gB ectodomain; ELISA on soluble gB ectodomain (4I22 was measured by Biacore on the 5-member complex)
T3 construct: extracellular domain

[7] = target: T2, hCMV glycoprotein B (gB; HEK293T …); assay: cell competition; competitor 7H3-biotin
[8] = target: T2, hCMV glycoprotein B (gB; HEK293T …); assay: cell competition; competitor 6B4-biotin
[9] = target: hCMV gB E361K + D362N (virus selected with 7H3 in fibroblasts) (hCMV); assay: cell-based or functional assay
[10] = target: T2, hCMV glycoprotein B (gB; HEK293T …); assay: cell-based or functional assay; remark: listed apart in the source
[11] = target: hCMV gB E381 deletion (virus selected with 7H3 in epithelial cells) (hCMV); assay: cell-based or functional assay
[12] = target: T2, hCMV glycoprotein B (gB; HEK293T …); assay: cell-based or functional assay; remark: listed apart in the source
[13] = target: T2, hCMV glycoprotein B (gB; HEK293T …); assay: cell competition; competitor 10C6-biotin
[14] = target: T2, hCMV glycoprotein B (gB; HEK293T …); assay: cell competition; competitor 4H9-biotin
[15] = target: T2, hCMV glycoprotein B (gB; HEK293T …); assay: cell-based or functional assay; remark: listed apart in the source
[16] = target: T2, hCMV glycoprotein B (gB; HEK293T …); assay: cell competition; competitor 5F1-biotin
[17] = target: T2, hCMV glycoprotein B (gB; HEK293T …); assay: cell competition; competitor 2B11-biotin

T2 sequence (P06473 32-906 limits assumed): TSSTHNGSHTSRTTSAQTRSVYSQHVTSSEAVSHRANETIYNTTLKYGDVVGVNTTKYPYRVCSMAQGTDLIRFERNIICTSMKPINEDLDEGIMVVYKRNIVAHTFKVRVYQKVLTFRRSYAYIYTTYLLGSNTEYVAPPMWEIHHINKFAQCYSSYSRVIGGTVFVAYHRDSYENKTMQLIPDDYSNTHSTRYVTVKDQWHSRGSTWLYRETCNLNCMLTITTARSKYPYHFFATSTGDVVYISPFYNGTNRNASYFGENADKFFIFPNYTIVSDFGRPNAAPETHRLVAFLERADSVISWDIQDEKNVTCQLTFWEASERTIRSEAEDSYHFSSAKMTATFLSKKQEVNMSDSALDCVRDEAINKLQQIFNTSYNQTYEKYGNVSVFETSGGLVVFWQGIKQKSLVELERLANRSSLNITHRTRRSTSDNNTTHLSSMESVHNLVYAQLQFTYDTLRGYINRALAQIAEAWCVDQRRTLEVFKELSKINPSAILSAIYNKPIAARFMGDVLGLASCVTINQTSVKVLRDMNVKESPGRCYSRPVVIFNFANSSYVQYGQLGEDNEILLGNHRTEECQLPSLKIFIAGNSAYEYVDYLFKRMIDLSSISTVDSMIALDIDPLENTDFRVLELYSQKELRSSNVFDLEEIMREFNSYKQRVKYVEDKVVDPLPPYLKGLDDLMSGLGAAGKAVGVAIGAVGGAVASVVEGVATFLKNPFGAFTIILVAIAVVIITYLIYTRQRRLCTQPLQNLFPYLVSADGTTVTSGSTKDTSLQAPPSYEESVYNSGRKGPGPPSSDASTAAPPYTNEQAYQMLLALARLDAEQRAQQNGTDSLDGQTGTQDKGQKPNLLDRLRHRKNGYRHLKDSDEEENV
T3 sequence (P06473 32-750 limits assumed): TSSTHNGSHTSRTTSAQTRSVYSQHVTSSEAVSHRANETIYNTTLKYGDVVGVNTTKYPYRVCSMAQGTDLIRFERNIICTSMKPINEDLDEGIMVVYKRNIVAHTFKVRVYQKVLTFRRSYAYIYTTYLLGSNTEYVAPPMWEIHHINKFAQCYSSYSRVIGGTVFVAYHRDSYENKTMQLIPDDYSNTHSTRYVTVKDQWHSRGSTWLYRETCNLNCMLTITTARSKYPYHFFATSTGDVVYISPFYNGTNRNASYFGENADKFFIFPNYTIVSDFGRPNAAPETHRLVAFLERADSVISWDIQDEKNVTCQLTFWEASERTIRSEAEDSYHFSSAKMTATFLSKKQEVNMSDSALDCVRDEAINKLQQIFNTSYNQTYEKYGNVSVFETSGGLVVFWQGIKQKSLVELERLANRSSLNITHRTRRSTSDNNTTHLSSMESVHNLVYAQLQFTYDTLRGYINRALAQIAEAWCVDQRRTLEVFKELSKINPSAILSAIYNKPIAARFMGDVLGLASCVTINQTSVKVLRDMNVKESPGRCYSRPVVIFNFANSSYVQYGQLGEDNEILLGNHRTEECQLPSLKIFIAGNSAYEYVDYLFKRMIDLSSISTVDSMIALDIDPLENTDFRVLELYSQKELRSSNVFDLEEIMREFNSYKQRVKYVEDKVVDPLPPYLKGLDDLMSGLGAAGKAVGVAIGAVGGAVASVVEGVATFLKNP

B1: 6L3 (antibody, V domains shown)
VH: EVRLEESGGGLVQPGGSLRLSCAASGFTVSTTYMAWVRQAPGKGLEWVSLIHTGGIFGVGGTSYADSVKGRFTISRDTSKNTVSLQMSSLRVEDTAIYFCAREHRGTIDAFDAWGQGTVVIVSS
VL: DIHMTQSPSSLSASVGDRVTITCRASQNIRNYLNWYQHKPGKAPKLLIYTTSRLQSGVPSRFSGSGSGTDFTLTVNSLQPEDFASYYCQQSYDGWTFGQGTKVEMK
90% neutralization VR1814, ARPE [1]: 10 µg/mL
90% neutralization VR1814, MRC-9 [1]: 30 µg/mL
50% neutralization VR1814, ARPE [2]: ≤ 2 µg/mL

B2: 7H3 (antibody, V domains shown)
VH: QVQLVQSGAEVKNPGASVKVSCKASGYTFTDYYIHWVRQAPGQGLEWMGWFNPNSGGTNFVQNFQGRVTMTRDTSISTAYMELSRLRSDDTAMYYCAKDSAKTASAYYGLNFFYYGMDVWGQGTTVTVSS
VL: QSVLSQPPSASGTPGQRVTISCSGSSSNIGKNYVYWYQQVPGTAPKLLMFKNNQRPSGVPDRFSGSKSGTSASLAISGLRSEDEADYYCSAWDGSLSRPLFGGGTKVTVL
notes: fully human IgG1 with unaltered Fc; also called 7H3-biotin; LJP538
90% neutralization VR1814, ARPE [3]: 0.6 µg/mL
90% neutralization VR1814, MRC-9 [3]: 3 µg/mL
50% neutralization VR1814, ARPE [4]: > 2 µg/mL
50% neutralization VR1814, MRC-9 [4]: ≤ 2 µg/mL
EC90 neutralization HUVEC, isolate TM-20749 [5]: 1.18 µg/mL
EC90 neutralization HUVEC, isolate TM-31354 [5]: 2.2 µg/mL
EC90 neutralization HUVEC, isolate TM-E5271 [5]: 0.19 µg/mL
EC90 neutralization HUVEC, isolate TM-E9361 [5]: 0.29 µg/mL
EC90 neutralization HUVEC, isolate TM-E14953 [5]: 0.12 µg/mL
EC90 neutralization HUVEC, isolate TM-E19664 [5]: 0.31 µg/mL
EC90 neutralization HUVEC, isolate TM-E20744 [5]: 0.39 µg/mL
EC90 neutralization HUVEC, isolate TM-E28175 [5]: 0.28 µg/mL
EC90 neutralization HUVEC, isolate TM-E28257 [5]: 1.02 µg/mL
Kd [6]: 0.29 nM
Inhibition of binding (%) [7]: 100%
Inhibition of binding (%) [8]: 0%
fold increase in neutralization EC50 of escape virus [9]: > 41 fold
EC50 inhibition of cell-cell fusion [10]: 4.77 µg/mL
fold decrease in susceptibility of escape virus [11]: 22 fold
50% neutralization VR1814, BM-MSC [12]: 2 µg/mL
50% neutralization VR1814, Mo-DC [12]: 0.06 µg/mL
Inhibition of binding (%) [13]: 0%
Inhibition of binding (%) [14]: 0%
neutralization of ARPE infection, isolate TM-20749 [15]: 4.36 µg/mL
neutralization of ARPE infection, isolate TM-31354 [15]: 1.42 µg/mL
neutralization of ARPE infection, isolate TM-E5271 [15]: 0.17 µg/mL
neutralization of ARPE infection, isolate TM-E9361 [15]: 0.33 µg/mL
neutralization of ARPE infection, isolate TM-E14953 [15]: 1.09 µg/mL
neutralization of ARPE infection, isolate TM-E19664 [15]: 0.26 µg/mL
neutralization of ARPE infection, isolate TM-E20744 [15]: 1.37 µg/mL
neutralization of ARPE infection, isolate TM-E28175 [15]: 0.24 µg/mL
neutralization of ARPE infection, isolate TM-E28257 [15]: 1.16 µg/mL
Inhibition of binding (%) [16]: 0%
Inhibition of binding (%) [17]: 0%
